The source of these data is the supplement of paper PMC12783771.

To fix the notation:
B1: library; a variant is named by its letters at X, in order (parent)
chain: MNIQIGELAKRTACPVVTIRFYEQEGLLPPPGRSRGNFRLYGEEHVERLQFIRHCRSLDMPLSDVRTLLSYRKRPDQDCGEVXMLLDEHIRQVESRIGALLELKHHLVELREACSGARPAQSCGILQXLSXCVCXTRGTTAHXSD

In series [1] the parent is B1. The series can be described thus: sfGFP reporter fluorescence (15 h) (µM FITC); higher = higher leak. As to conditions: library round: Round 2; ligand: none. The essentials:
(§1)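 Values are endpoint sfGFP fluorescence given as µM FITC equivalents. Fluorescence was read at 485/528 nm on a Synergy Neo2, and FITC standard curves were prepared in 50 mM sodium borate pH 8.5. Reactions of 1 μL combined BL21 Star (DE3) PANOx-SP extract, pPbrR-sfGFP reporter, 30 μg/mL GamS and linear PbrR templates (PCR-made, Echo-normalized to 5 nM), with 1 µM lead chloride, 30 µM zinc acetate or no metal, for 15 hr at 30 °C.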

Variants of B1 are the subject of series [2]. Put plainly: sfGFP reporter fluorescence (15 h) (µM FITC); higher = stronger transcriptional activation. As to conditions: library round: Round 2. The essentials: as §1

± gives the standard deviation of the averaged measurements.

Turning to MNIQIGELAKRTACPVVTIRFYEQEGLLPPPGRSRGNFRLYGEEHVERLQFIRHCRSLDMTLSDVRTLLSYRKRPDQDCGEVNMLLDEHIRQVESRIGALLELKHHLVELREACSGARPAQSCGILQGLSLCVCATRGTTAHPSD, the sfGFP reporter fluorescence in series [1] is 0.217 ± 0.015; in series [2] (ligand: 1 µM Pb), 0.402 ± 0.021; in series [2] (ligand: 30 µM Zn) it was 1.9 ± 0.27.
The corresponding values for MNIQIGELAKRTACPVVTIRFYEQEGLLPPPGRSRGNFRLYGEEHVERLQFIRHCRSLDMPLSDVRTLLSYRKRPDQDCGEVTMLLDEHIRQVESRIGALLELKHHLVELREACSGARPAQSCGILQGLSHCVCATRGTTAHPSD are 0.0614 ± 0.0048, 0.0828 ± 0.0035 and 0.394 ± 0.061.
For MNIQIGELAKRTACPVVTIRFYEQEGLLPPPGRSRGNFRLYGEEHVERLQFIRHCRSLDMPLSDVRTLLSYRKRPDQDCGEVTMLLDEHIRQVESRIGALLELKHHLVELREACSGARPAQSCGILQGLSDCVCRTRGTTAHWSD the same measures were 0.0495 ± 0.00078, 0.0726 ± 0.0038 and 0.205 ± 0.014.
For MNIQIGELAKRTACPVVTIRFYEQEGLLPPPGRSRGNFRLYGEEHVERLQFIRHCRSLDMPLSDVRTLLSYRKRPDQDCGEVTMLLDEHIRQVESRIGALLELKHHLVELREACSGARPAQSCGILQGLSHCVCPTRGTTAHYSD the same measures were 0.0455 ± 0.0011, 0.116 ± 0.0064 and 0.214 ± 0.017.
MNIQIGELAKRTACPVVTIRFYEQEGLLPPPGRSRGNFRLYGEEHVERLQFIRHCRSLDMPLSDVRTLLSYRKRPDQDCGEVNMLLDEHIRQVESRIGALLELKHHLVELREACSGARPAQSCGILQGLSHCVCATRGTTAHYSD: the values for the sfGFP reporter fluorescence in series [1], in series [2] (ligand: 1 µM Pb) and in series [2] (ligand: 30 µM Zn) were 0.0533 ± 0.003, 0.0816 ± 0.0062 and 0.791 ± 0.037, respectively.
For MNIQIGELAKRTACPVVTIRFYEQEGLLPPPGRSRGNFRLYGEEHVERLQFIRHCRSLDMPLSDVRTLLSYRKRPDQDCGEVSMLLDEHIRQVESRIGALLELKHHLVELREACSGARPAQSCGILQGLSMCVCATRGTTAHPSD the same measures were 0.0668 ± 0.0035, 0.0819 ± 0.0034 and 0.586 ± 0.076.
The corresponding values for MNIQIGELAKRTACPVVTIRFYEQEGLLPPPGRSRGNFRLYGEEHVERLQFIRHCRSLDMPLSDVRTLLSYRKRPDQDCGEVSMLLDEHIRQVESRIGALLELVHHLVELREACSGARPAQSCGILQGLSDCVCVTRGTTAHPSD are 0.067 ± 0.0056, 0.134 ± 0.0074 and 1.3 ± 0.15.
